From patent US20170183639A1

Biological target: purified human recombinant Src (human) (UniProt P12931)
Experiment: in vitro competition; Src pre-incubated with peptide, GST-CD2 pull-down as competitor

**Q.** With “pNaSH2 (TAT-tagged CD2-derived peptide phosphorylated at Y260)” as the substance, how does the IC50 read?
**A.** 500 nM
